Reference: the supplement of paper PMC7877785
± gives the uncertainty stated by the source.

Assay: self-splicing fitness, log relative to wild type (ln ratio); higher = more splicing; Tetrahymena group I intron in knt gene, E. coli kanamycin selection, DiMSum; sequences stand for … in CUCUCU…GGAGGGAAAAGUUAUCAGGCAUGCACCUGGUAGCUAGUCUUUAAACCAAUAGAUUGCAUCGGUUUAAAAGGCAAGACCGUCAAAUUGCGGGAAAGGGGUCAACAGCCGUUCAGUACCAAGUCUCAGGGGAAACUUUGAGAUGGCCUUGCAAAGGGUAUGGUAAUAAGCUGACGGACAUGGUCCUAACCACGCAGCCAAGUCCUAAGUCAACAGAUCUUCUGUUGAUAUGGAUGCAGUUCACAGACUAAAUGUCGGUCGGGGAAGAUGUAUUCUUCUCAUAAGAUAUAGUCGGACCUCUCCUUAAUGGGAGCUAGCGGAUGAAGUGAUGCAACACUGGAGCCGCUGGGAACUAAUUUGUAUGCGAAAGUAUAUUGAUUAGUUUUGGAGUACUCGUGGUCG
How it was run: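 Pooled colonies went to amplicon sequencing on an Illumina HiSeq 2500 after six replicate transformations. The plates were LB agar with 100 μg/mL carbenicillin, 50 μM IPTG and 0.2% rhamnose, with or without 25 μg/mL kanamycin, incubated overnight at 37°C or 30°C. The E. coli BL21(DE3) library had all eight P1ex-region intron nucleotides randomised, the intron placed in the knt kanamycin-resistance gene on pET-22b(+). DiMSum fitness is the error-weighted combination of replicate fold changes, kanamycin against none, normalised to wild type.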

Sequence | self-splicing fitness (ln) (30 °C) | self-splicing fitness (ln) (37 °C)
GAACAGCAAUAUUACGUCGA | -0.66 ± 0.066 | -0.117 ± 0.076
GAACAGCAAUAUUACGUCUC | -2.17 ± 0.17 | -0.443 ± 0.16
GAACAGCAAUAUUACGUGAG | -0.394 ± 0.031 | -0.235 ± 0.053
GAACAGCAAUAUUACGUGUC | -3.49 ± 0.14 | -3.22 ± 0.17
GAACAGCAAUAUUACGUUAA | -0.997 ± 0.068 | -0.105 ± 0.08
GAACAGCAAUAUUACGUUUU | -3.06 ± 0.083 | -2.25 ± 0.11
GAAGAGCAAUAUUACGACCG | -2.29 ± 0.36 | –
GAAGAGCAAUAUUACGAGAG | -2.3 ± 0.12 | -3.22 ± 0.27
GAAGAGCAAUAUUACGAGAU | -3.35 ± 0.23 | -2.08 ± 0.19
GAAGAGCAAUAUUACGAUUC | -3.57 ± 0.26 | -2.45 ± 0.28
GAAGAGCAAUAUUACGCACG | -2.22 ± 0.1 | -1.71 ± 0.16
GAAGAGCAAUAUUACGCCGG | -2.66 ± 0.18 | -2.5 ± 0.29
GAAGAGCAAUAUUACGCGGC | -2.37 ± 0.27 | -1.8 ± 0.33
GAAGAGCAAUAUUACGCUAA | – | -2.22 ± 0.3
GAAGAGCAAUAUUACGGACU | -2.93 ± 0.22 | -1.14 ± 0.13
GAAGAGCAAUAUUACGGAUA | -2.15 ± 0.22 | -2.85 ± 0.43
GAAGAGCAAUAUUACGGAUG | -3.4 ± 0.45 | -1.09 ± 0.31
GAAGAGCAAUAUUACGGCGU | -1.48 ± 0.1 | -0.224 ± 0.12
GAAGAGCAAUAUUACGGGCA | -1.96 ± 0.16 | -1.23 ± 0.14
GAAGAGCAAUAUUACGGGCC | -2.16 ± 0.29 | –
GAAGAGCAAUAUUACGGGGA | -2.93 ± 0.43 | -0.71 ± 0.31
GAAGAGCAAUAUUACGGUAC | -3.39 ± 0.31 | -1.69 ± 0.32

Sequence | self-splicing fitness (ln) (30 °C) | self-splicing fitness (ln) (37 °C)
GAAGAGCAAUAUUACGGUGG | -4.19 ± 0.33 | -3.17 ± 0.32
GAAGAGCAAUAUUACGUACC | -1.6 ± 0.2 | -1.49 ± 0.19
GAAGAGCAAUAUUACGUAUG | -3.52 ± 0.23 | -2.16 ± 0.17
GAAGAGCAAUAUUACGUGUA | -2.66 ± 0.2 | -2.76 ± 0.19
GAAGAGCAAUAUUACGUGUG | -3.15 ± 0.22 | -2.67 ± 0.18
GAAGAGCAAUAUUACGUUAU | -3.85 ± 0.25 | -1.47 ± 0.2
GAAGAGCAAUAUUACGUUCG | -1.52 ± 0.11 | -0.987 ± 0.14
GAAUAGCAAUAUUACGAACC | 0.0666 ± 0.21 | 0.816 ± 0.24
GAAUAGCAAUAUUACGAAUU | -1.78 ± 0.084 | -0.497 ± 0.1
GAAUAGCAAUAUUACGACAA | -0.386 ± 0.13 | -0.329 ± 0.13
GAAUAGCAAUAUUACGACAG | -3.2 ± 0.28 | -2.62 ± 0.35
GAAUAGCAAUAUUACGAGAA | -2.39 ± 0.46 | -1.6 ± 0.38
GAAUAGCAAUAUUACGAUGG | -2.74 ± 0.14 | -0.977 ± 0.12
GAAUAGCAAUAUUACGAUUU | -1.74 ± 0.12 | -0.649 ± 0.11
GAAUAGCAAUAUUACGCACC | -1.19 ± 0.23 | 0.185 ± 0.32
GAAUAGCAAUAUUACGCGAA | -3.09 ± 0.21 | -1.96 ± 0.2
GAAUAGCAAUAUUACGCGUA | -2.17 ± 0.16 | -0.973 ± 0.13
GAAUAGCAAUAUUACGCUAC | -1.75 ± 0.48 | –
GAAUAGCAAUAUUACGGAUG | -2.29 ± 0.099 | -2.01 ± 0.12
GAAUAGCAAUAUUACGGCCC | -0.303 ± 0.14 | 0.174 ± 0.21
GAAUAGCAAUAUUACGGGAC | -3.37 ± 0.31 | -2.53 ± 0.3
